The record followed here is publication PMC6742660, “Autoinhibition and activation mechanisms of the eukaryotic lipid flippase Drs2p-Cdc50p” (Nature Communications, 2019).

This test concerns the target T1, Drs2p (S. cerevisiae, UniProt P39524 1-1355).
T1 construct: Drs2p, Saccharomyces cerevisiae, intact protein of 1355 residues; Co-purified with endogenous Cdc50p; Residues 196-212 of the N-terminal peptide and Glu1231-Ala1309 of the C-terminal peptide are ordered in the apo map; The last 46 residues are disordered; also called Drs2p ATPase; P4 ATPase subunit of the Drs2p-Cdc50p lipid flippase; not shown: triple FLAG, C-terminal, kept
T1 sequence (looked up): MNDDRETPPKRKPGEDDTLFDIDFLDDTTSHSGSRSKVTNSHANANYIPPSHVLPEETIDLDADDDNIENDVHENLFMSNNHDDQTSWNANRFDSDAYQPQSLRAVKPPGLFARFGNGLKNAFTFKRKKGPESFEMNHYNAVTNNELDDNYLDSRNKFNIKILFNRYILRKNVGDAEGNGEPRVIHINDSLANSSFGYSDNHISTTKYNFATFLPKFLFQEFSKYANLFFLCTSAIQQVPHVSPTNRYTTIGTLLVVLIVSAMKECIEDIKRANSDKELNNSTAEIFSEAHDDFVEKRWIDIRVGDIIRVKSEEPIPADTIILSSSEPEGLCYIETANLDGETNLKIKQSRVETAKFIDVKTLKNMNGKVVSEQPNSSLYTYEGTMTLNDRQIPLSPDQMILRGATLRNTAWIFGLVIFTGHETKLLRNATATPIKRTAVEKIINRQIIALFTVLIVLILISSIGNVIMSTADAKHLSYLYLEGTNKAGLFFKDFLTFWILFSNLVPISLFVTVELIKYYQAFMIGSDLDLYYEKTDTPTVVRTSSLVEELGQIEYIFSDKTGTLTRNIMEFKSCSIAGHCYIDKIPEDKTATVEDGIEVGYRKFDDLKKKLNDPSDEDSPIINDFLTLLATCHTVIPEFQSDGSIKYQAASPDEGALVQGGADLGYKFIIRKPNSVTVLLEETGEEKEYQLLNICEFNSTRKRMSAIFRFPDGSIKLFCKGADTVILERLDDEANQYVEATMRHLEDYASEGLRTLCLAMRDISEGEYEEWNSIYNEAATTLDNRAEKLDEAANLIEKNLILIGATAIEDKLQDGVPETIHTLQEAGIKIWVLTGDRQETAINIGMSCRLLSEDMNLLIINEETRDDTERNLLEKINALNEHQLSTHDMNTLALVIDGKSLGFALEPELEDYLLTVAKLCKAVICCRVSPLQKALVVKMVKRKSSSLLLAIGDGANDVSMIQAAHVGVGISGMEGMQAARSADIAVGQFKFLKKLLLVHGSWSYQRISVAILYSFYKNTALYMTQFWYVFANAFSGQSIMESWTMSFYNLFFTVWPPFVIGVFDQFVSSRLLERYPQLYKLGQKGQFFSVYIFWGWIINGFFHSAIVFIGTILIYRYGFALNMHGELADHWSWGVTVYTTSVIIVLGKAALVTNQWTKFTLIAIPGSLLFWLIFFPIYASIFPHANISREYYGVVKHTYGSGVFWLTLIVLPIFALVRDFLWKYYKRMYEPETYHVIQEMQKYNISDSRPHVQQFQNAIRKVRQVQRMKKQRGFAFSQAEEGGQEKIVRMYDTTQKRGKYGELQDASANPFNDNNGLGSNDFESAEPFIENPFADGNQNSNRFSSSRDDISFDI
Kind of test: cryo-EM structure; endogenous Drs2p-Cdc50p complex as purified, apo autoinhibited form, 3 mg/mL; 0.01% LMNG, 0.001% CHS, 150 mM NaCl, 20 mM Tris-HCl pH 7.4, 1 mM MgCl2, 1 mM MnCl2; 2.8 Å map. Particulars: both partners purified.

B1: Cdc50p (natural protein, S. cerevisiae, UniProt P25656 1-391, looked up)
chain: MVSLFKRGKAPPLTKEGPTSKKPPNTAFRQQRLKAWQPILSPQSVLPLLIFVACIFTPIGIGLIVSATKVQDLTIDYSHCDTKASTTAFEDIPKKYIKYHFKSKVENKPQWRLTENENGEQSCELQFEIPNDIKKSIFIYYKITNFYQNHRRYVQSFDTKQILGEPIKKDDLDTSCSPIRSREDKIIYPCGLIANSMFNDTFSQVLSGIDDTEDYNLTNKHISWSIDRHRFKTTKYNASDIVPPPNWMKKYPDGYTDENLPDIHTWEEFQVWMRTAAFPKFYKLTLKNESASLPKGKYQMNIELNYPISLFGGTKSFVLTTNGAIGGRNMSLGVLYLIVAGLCALFGIIFLVKLIFQPRAMGDHTYLNFDDEENEDYEDVHAENTTLREIL
modifications: N-glycans at Asn-199, Asn-216 and Asn-288; disulfide bonds Cys-80 with Cys-123 and Cys-176 with Cys-190
notes: Cdc50p, Saccharomyces cerevisiae, endogenous untagged subunit of the Drs2p-Cdc50p complex; The first half of the 40-residue N-terminal peptide and the 31-residue C-terminal peptide are disordered in the map
For B1, the binding result is recorded as “binds”.
